Test system: K4 kissing-loop RNA reporter
Assay: apparent KD of K4 kissing-loop reporter; higher = weaker reporter binding
Details: Eterna round: R107
Method: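 RNA-MaP round R107: designed RNA switches with theophylline, tryptophan, arginine or FMN aptamers are transcribed on-chip within common flanks. They are titrated with a labelled K4 kissing-loop RNA reporter in RNA-MaP buffer (100 mM Tris pH 7.5, 80 mM KCl, 4 mM MgCl2), without ligand or with the indicated ligand. Median apparent KD per design.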

[1] = input ligand: theophylline 20 uM
[2] = input ligand: tryptophan 2.4 mM
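Also: bound reporter read as fluorescence of individual clusters on recovered sequencing chips by microscopy, with normalized cluster intensities fitted with a binding model.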

| Sequence | apparent KD of K4 kissing-loop reporter (input ligand: FMN 200 uM) [nM] | apparent KD of K4 kissing-loop reporter (input ligand: arginine 13.2 mM) [nM] | apparent KD of K4 kissing-loop reporter (input ligand: none) [nM] | apparent KD of K4 kissing-loop reporter [1] [nM] | apparent KD of K4 kissing-loop reporter [2] [nM] |
| --- | --- | --- | --- | --- | --- |
| AAUAUAGUGAUGUUAUAUAAGAAGGAGUUACGAGGACCGGUACGGCCGCCACUCGAAACGAGUGAGGAUUUGGGAGAUUGGGUCC [SSTryptA.K] | 300 | 366 | 430 | 384 | 299 |
| AAUGCGCAGGGAAGGAGCGCCGUCCAGUGAUGUUGGAGUUAAAUACCAGUGAUGUUGGUUAGGCAGGUAGGUCGCCCUAAAGCGC [Exclusion Arginine B GF 1] | 118 | 79.9 | 92.1 | 98 | 83.8 |
| AAUGGGUGAUAAGGAUAUCCACCUCACAAACCAAGAGUGAUGUUCGUUGGUCCAUGGACAAUAUGUGGAGAAGGUAUAGUGAUUA [theeternabot_exclusion_KL_FMN_B_48] | 855 | 853 | 1000 | 747 | 700 |
| AAUGUACAGGGAAGGAGCGCCGUCCAGUGAUGUUGGAGUUAAAUACCAGUGAUGUUGGUUAGGCAGGUAGGUCGCCCUAUAGUAU [#07 K4 Arginine B Exclusion] | 126 | 92.9 | 117 | 134 | 108 |
| AAUGUAUGGCACAUGAGUGAUGUUCAUGUCCGAGGACCGGUACGGCCGCCACUCGGUCCUGGGUUCUUAUUACUAUACAUUAAUG [KL-XTryp-A2 #analogue] | 161 | 133 | 149 | 169 | 289 |
| AAUGUAUUCCACAUGAGUGAUGUUCAUGUGCGAGGACCGGUACGGCCGCCACUCGCAGUUGUGAUCAGUUCUGAAUACAUUAAUG [KL-XTryp-A3] | 229 | 225 | 219 | 235 | 331 |
| AAUGUGCAGGGAAGGAGCGUAGUCCAGUGCUGUUGGAGUUAGAUACCAGUGAUGUUGGUUAUACAGGUAGGUCGCCCUAAAGCGC [whbob_Ex_Arginine_B_2th161] | 139 | 154 | 140 | 161 | 130 |
| AAUUAAUGUAUAGAUUAUAUACAUUAAUCAGAGGAUAUGCAUUGUUGCAGAAGGCUGAAUGCAGUGAUGUUGCAAUGGAAAUUUA [JR_SSFMNA_Sub004] | 53.8 | 201 | 181 | 376 | 120 |
| AAUUGGGACGAAGGAUAUUGUCGGCCAUGUACGAGGUCCGGAUGUCAUGACUGUUAGUGAUGUUAACAAGAAGGUCGAGGGAGAC [theeternabot_exclusion_KL_FMN_B_25] | 87 | 107 | 103 | 119 | 86.3 |
| AAUUUACAAUAAUCAUUUAAAGGAUCAGAAGGAGCGUGAAAUAACACAGGUAGGUCGCUGAGCGAGUGAUGUUCGCUAUAUACAA [JR_ExcArginiA_Sub001] | 52.3 | 68.7 | 68.8 | 85.9 | 50.1 |
| ACACUUUACGUAGGAUAUGCGACGAGUGAUGUUCGUCAGGCGGCUUUAGCUUAAUCAGGCCGCCUAGCAGAAGGACGGGCAGUGU [Zaretiesre] | 142 | 149 | 199 | 195 | 181 |
| ACAGCGAGCAUUAACGCGCUCGCAGGUUGCAAGGAUAUAUUUCGUCAUAGAAGGUGCUAGACCAUAAGUGAUGUUUGUGGAUAUA [theeternabot_sameState_KL_FMN_A_16] | 576 | 396 | 503 | 448 | 525 |
| ACAGGAUCGAAAGAUCCUGAGCAGUCAAACCGAGGACCGGUACGGCCGCCACUCGGAGUGAUGUUCCGAAGACUGCAAAAUAAAA [#SwitchBubble 1] | 539 | 707 | 1120 | 406 | 334 |
| ACCCAAGCCCAUCGCGCAGUGAUGUUGUCGCGAGGACCGGUACGGCCGCCACUCGAUAGCAGUGGCAACGUCAUCAUAAUCGAUU [theeternabot_exclusion_KL_Trp_A_50] | 340 | 310 | 352 | 299 | 563 |
| ACCUACGAUCACAAUAGUGAUUGUAGGAACUAGGAUAUGCUGAAAAGCAGAAGGAGUGAUGUUCCAACUCAUGAAUAACAUGAGA [FmnAX 2 #OpenEnded #K4Late] | 536 | 252 | 249 | 274 | 198 |
| ACGUAGUUCUAGGAUACCAGCCAAGGCGCAGGACAAAAGUCCUGCGUCGCCAGUGAUGUUGGCCCUUGGCAGCCUAGAACUACGA [Omei KL Theo B Exc B v12] | 334 | 302 | 304 | 364 | 308 |
| ACGUCUUGUAAACUCGUGGUUUCGAUCGAUACCAGUAGCGAGAGUUACCCUUGGCAGCGACAUGAGUGAUGUUCAUGUACGAAGA [KL-XTheoA3] | 98.6 | 87.9 | 92.9 | 89 | 90.7 |
| ACGUGCACCAGUGAUGUUGGAAAAUAUGAAGGAGCGGGUGAAAACCCAGGUAGGUCGCAUAAUAGCACGAGCCACGAAAGUGGCA | 125 | 138 | 157 | 128 | 122 |
| ACGUGCACUAGUGAUGUUAGAAAAUACGAAGGAGCGGGCGAAAGCCCAGGUAGGUCGCGUAAUAGCACGAGCCACGAAAGUGGCA | 254 | 271 | 325 | 447 | 248 |
| ACUGAAAGAUCUGAUACCAGACUUUUUGUAUUUAUUAAAACUAGUGAUGUUAGUUUAUCUGUCCCUUGGCAGCAGUUUCUACAGA [JR_Nu_ExcTheophyB_Sub023] | 128 | 132 | 144 | 134 | 117 |
| ACUUUGGGCCCAGUGAUGUUGGGUCCAGAUACCAGACGUAAAUAAGUCCCUUGGCAGCUGCGUACUAACUAGCACAGGAGGGUCC [Edleaes] | 135 | 143 | 150 | 154 | 141 |

| Sequence | apparent KD of K4 kissing-loop reporter (input ligand: FMN 200 uM) [nM] | apparent KD of K4 kissing-loop reporter (input ligand: arginine 13.2 mM) [nM] | apparent KD of K4 kissing-loop reporter (input ligand: none) [nM] | apparent KD of K4 kissing-loop reporter [1] [nM] | apparent KD of K4 kissing-loop reporter [2] [nM] |
| --- | --- | --- | --- | --- | --- |
| AGAACUGUCUGAGAUACCAGCUAAGGAGUGAUGUUCCUAAGUCCACGAAAGUGGACUCAUAGCCCUUGGCAGCUCAGACAGUUCA [#24 K4 Theophylline B Same State] | 1150 | 675 | 815 | 565 | 963 |
| AGAACUGUCUGGGAUACCAGCCGAGGAGUGAUGUUCCGGCUCGACGAAACGUCGAGCCACGGCCCUUGGCAGCUCAGACAGUUCA [#21 K4 Theophylline B Same State] | 674 | 332 | 1050 | 1250 | 759 |
| AGACUACCACACUGUCAAUAGACAGUGAACUCGGAUAUGCUGAUAAGCAGAAGGAGUGAUGUUCCCAGGUAGUCAAUAAAAUAAU [FmnAX 13 C32+C66] | 135 | 111 | 144 | 233 | 142 |
| AGAGCGGUCGAAGGAUAUGAGACAACCAACGGUGAGUGAUGUUUGCCGAGUAAACCUCUAGUUGCGUCAGAAGGUCGGCUCAGUC [theeternabot_sameState_KL_FMN_B_25] | 595 | 460 | 633 | 625 | 520 |
| AGAGGUCCCAGUGAUGUUGGUGCGUUUGGUCGAGGACCGGUACGGCCGCCACUCGUUCAUAGUAAGCCCUCUUUAGUGUUUCUAA [theeternabot_sameState_KL_Trp_A_9] | 544 | 336 | 428 | 551 | 186 |
| AGAGUACGAAAGUACUCCUCUACACACUGACGAGGACCGGUACGGCCGCCACUCGAGUUGAGUGAUGUUCGACAGUGUGUAGAGA [Omei KL Tryp A SS C v1] | 120 | 22.3 | 25.6 | 163 | 783 |
| AGAGUGAUGUUUUUUUGAAGUGAGUAAAGUCGAGGACCGGUACGGCCGCCACUCGAGUGAUGUUAGUGAUGUUGAUGUAGUGAUG [xxzmullin] | 110 | 69 | 90.9 | 105 | 75.4 |
| AGAGUUAUGCGAGGAUAUGCGGUUAGUACUCAAAGAGUACUAACGCAGAGUGAUGUUCUGUGAAACACAGAAGGUGCAUAACUCA [Omei KL FMN B SS B v2] | 950 | 116 | 249 | 205 | 148 |
| AGAGUUAUGCGAGGAUAUGCGGUUAGUACUCAAAGAGUACUAACGCAGAGUGAUGUUCUGUGAAACGCAGAAGGUGCAUAACUCA [Omei KL FMN B SS B v3] | 153 | 216 | 280 | 238 | 229 |
| AGAUCUGUAACAGAUACCAGAGGACGAUGAUCGGAUAGUGAUGUUAUCUAUCAGUCGUCGCUCCCUUGGCAGCUGUUACAGAUCA [Omei KL Theo B SS B v2] | 839 | 450 | 776 | 552 | 662 |
| AGAUGACACGGAGGAUAUCCUAAUAUGGGUGAUGUUAGCGAUGUUGAAGGUGUAGUGAUGUUAUGCGGAGAAGGCCGUGUUGUUU [BDazzled - #22 - Exc. FMN B] | 103 | 85.6 | 155 | 102 | 96.1 |
| AGAUUCGACACGGCCGCCACUUCCAGUGGCUGGUGUCAUGGUGCACGUGAGUGAUGUUUAUGUGGAAGGACCGGGUGUUGAGUCU [KL-XTryp-B2 #analogue] | 652 | 472 | 670 | 504 | 1250 |
| AGAUUCGACACGGCCGCCACUUGUGGUGGAUUAUCCUAUGUAAGACAUGAGUGAUGUUCAUGUACAAGGACCGGGUGUUGAGUCU [KL-XTryp-B4 #analogue] | 215 | 177 | 199 | 193 | 425 |
| AGCAGUGAUGUUGCAUUUAUAAUGACCGAUACCAGUAUCGAUAGAUACCCUUGGCAGCGGAUUUCCGCAACGACUAGGAAACUAG [Ex Theophylline A K4 14] | 305 | 359 | 355 | 508 | 283 |
| AGCCGAAAGGCGAGUGCUGUCACUCCGGAAGGAGCGCCCAAAAGGGCAGGUAGGUCGCCGGAGUGAUGUUCCGGUGCAGCACUCA [Omei KL Arginine A Exc B v3] | 572 | 497 | 784 | 533 | 482 |
| AGGACGUGAGAAGAUACCAGAGAAUAAUGCAGUGAUGUUGCUAAAUAUAAUUUAAUAUAACUCCCUUGGCAGCUUAAGUUAGUCU [Theophylline b same state] | 75.2 | 120 | 98.7 | 115 | 73.9 |
| AGGCAAUAUGCGGCCGCCACUUUCAGUGAUGUUGAGACGCGGAAUGUUGUAUAAUAUCGCCACGAAAGGACCGGGCAAGGGAAAG [theeternabot_exclusion_KL_Trp_B_5] | 691 | 434 | 542 | 423 | 355 |
| AGGCACGAGCAAGGAUAUCGAGUAGAGUGAUGUUCUGCCUGGGUUGGCGCGCAAGGGCCUUCCCAGCGAGAAGGUGCUCGUGCCU [#2 Same State - FMN A Attempt #11 (HarryS)] | 221 | 840 | 916 | 682 | 634 |
| AGGCCACACAGCGAGUGAUGUUUGCGUUAUCGAGGACCGGUACGGCCGCCACUCGGCCUUUAGCGCCUUACCAAUUAGGUGUUGC [theeternabot_sameState_KL_Trp_A_46] | 453 | 430 | 731 | 556 | 647 |
| AGGCCCGGCCGAAAGGCCGGGCCAAGAGAUACCAGCAGCGAAAGCUGCCCUUGGCAGCUCACUUAGUGAUGUUAAGAAUAGAACA [SS Theo A Tesla 1] | 538 | 464 | 375 | 485 | 390 |
| AGGGAUGAUGGAUAAAUAAACAAAAGGGAUACCAGUCAAAUAAUAGGCCCUUGGCAGCUUUAGAUCAGUGAUGUUGAAGAUAUUG [Theophylline A Same State; Euphoria Solution] | 84.1 | 127 | 93 | 159 | 78.5 |
